Experimental data reported in paper PMC7792996, “Crystal structure of death-associated protein kinase 1 in complex with the dietary compound resveratrol” (IUCrJ, 2021).

Substrate: Nc1ncnc2c1ncn2[C@@H]1O[C@H](COP(=O)(O)OP(=O)(O)OP(=O)(O)O)[C@@H](O)[C@H]1O
Assay: intrinsic ATPase kinetics by malachite green assay (Km)
Type: biochemical, Homo sapiens
Settings: Mg2+ ([…] MgCl2 in the assay) ATP-binding site

B1: Death-associated protein kinase 1 (DAPK1) (Homo sapiens) (protein)
chain: MTVFRQENVDDYYDTGEELGSGQFAVVKKCREKSTGLQYAAKFIKKRRTKSSRRGVSREDIEREVSILKEIQHPNVITLHEVYENKTDVILILELVAGGELFDFLAEKESLTEEEATEFLKQILNGVYYLHSLQIAHFDLKPENIMLLDRNVPKPRIKIIDFGLAHKIDFGNEFKNIFGTPEFVAPEIVNYEPLGLEADMWSIGVITYILLSGASPFLGDTKQETLANVSAVNYEFEDEYFSNTSALAKDFIRRLLVKDPKKRMTIQDSLQHPWIKPKDTQQALS
notes: catalytic domain, residues 1–285
Km: 21 ± 2.4 µM
kcat: 0.012 ± 8.5e-05 s⁻¹
kcat/Km: 733 ± 71.7 M⁻¹ s⁻¹
